From patent US11453711B2, “Fusion proteins of GLP-1 and GDF15 and conjugates thereof” (BEIJING QL BIOPHARMACEUTICAL CO., LTD., priority 2019, dated 2022)
Where a chain is given by its changes, count along the chain named.

B1: MLC012: fusion polypeptide SEQ ID NO: 259 conjugated with Moiety A at 12K of Linker (conjugate)
chain: HGEGTFTSDVSSYLEEQAAREFIAWLVRGGGGQEPGQEPGQEKGQEPGQEPGQEPGQEPGQEPGQEPGQEPARQGDHCPLGPGRCCRLHTVRASLEDLGWADWVLSPREVQVTMCIGACPSQFRAANLHAQIKTSLHRLRPDTVPAPCCVPASYNPMVLIQRTDTGVSLQTYDDLLARDCHCI
modifications: Moiety A conjugated at linker K12
B2: MLC045: fusion polypeptide SEQ ID NO: 328 conjugated with Moiety A at 1K and 55K of Linker (conjugate)
chain: HGEGTFTSDVSSYLEEQAAREFIAWLVRGGGKQEPGAQPGQEPGAQPGQEPGAQPGQEPGAQPGQEPGAQPGQEPGAQPGAQPGAKPGAQPGAQPGAQPGAQPGAQPGAQPARQGDHCPLGPGRCCRLHTVRASLEDLGWADWVLSPREVQVTMCIGACPSQFRAANLHAQIKTSLHRLRPDTVPAPCCVPASYNPMVLIQRTDTGVSLQTYDDLLARDCHCI
modifications: Moiety A conjugated at linker K1, K55
B3: MLC084: fusion polypeptide SEQ ID NO: 376 conjugated with Moiety C at 39C of Linker (conjugate)
chain: B2 chain with R20K, K32G, A69Q, Q70C, K86Q, R180K, R202K, R218K
modifications: Moiety C conjugated at linker Cys39
B4: MLC081: fusion polypeptide SEQ ID NO: 374 conjugated with Moiety C at 35C of Linker (conjugate)
chain: B2 chain with R20K, K32G, E66C, A81Q, Q82E, K86Q, R180K, R202K, R218K
modifications: Moiety C conjugated at linker Cys35
B5: MLC080: fusion polypeptide SEQ ID NO: 374 conjugated with Moiety B at 35C of Linker (conjugate)
chain: B2 chain with R20K, K32G, E66C, A81Q, Q82E, K86Q, R180K, R202K, R218K
modifications: Moiety B conjugated at linker C35
B6: MLC083: fusion polypeptide SEQ ID NO: 376 conjugated with Moiety B at 39C of Linker (conjugate)
chain: B2 chain with R20K, K32G, A69Q, Q70C, K86Q, R180K, R202K, R218K
modifications: Moiety B conjugated at linker Cys39
B7: MLC043: fusion polypeptide SEQ ID NO: 326 conjugated with Moiety A at 26K of GLP-1 (conjugate)
chain: HGEGTFTSDVSSYLEEQAAKEFIAWLVRGGGGQEPGAQPGQEPGAQPGQEPGAQPGQEPGAQPGQEPGAQPGQEPGAQPGAQPGAQPGAQPARQGDHCPLGPGRCCRLHTVRASLEDLGWADWVLSPREVQVTMCIGACPSQFRAANLHAQIKTSLHRLRPDTVPAPCCVPASYNPMVLIQRTDTGVSLQTYDDLLARDCHCI
modifications: Moiety A conjugated at K26
B8: MLC014: negative control, SEQ ID NO: 261: linker fused to N terminal of GDF15, CRM conjugated to lysine in the linker; GDF15 derivative (conjugate)
chain: SEPATSGQEKGQEPGQEPGQEPGQEPGQEPGAQPGAQPARQGDHCPLGPGRCCRLHTVRASLEDLGWADWVLSPREVQVTMCIGACPSQFRAANLHAQIKTSLHRLRPDTVPAPCCVPASYNPMVLIQRTDTGVSLQTYDDLLARDCHCI
modifications: CRM conjugated to linker lysine
notes: GDF15 derivative
B9: MLC027: fusion polypeptide SEQ ID NO: 274 conjugated with Moiety A at 55K of Linker (conjugate)
chain: HGEGTFTSDVSSYLEEQAAREFIAWLVRGGGGAQPGAQPGAQPGAQPGAQPGAQPGAQPGAQPGQEPGAQPGQEPGAQPGQEPGQKPGQEPGQEPGQEPGQEPGAQPGAQPARQGDHCPLGPGRCCRLHTVRASLEDLGWADWVLSPREVQVTMCIGACPSQFRAANLHAQIKTSLHRLRPDTVPAPCCVPASYNPMVLIQRTDTGVSLQTYDDLLARDCHCI
modifications: Moiety A conjugated at linker K55
B10: MLC018: fusion polypeptide SEQ ID NO: 265 conjugated with Moiety A at 52K of Linker (conjugate)
chain: HGEGTFTSDVSSYLEEQAAREFIAWLVRGGGGQEPGAQPGQEPGAQPGQEPGAQPGQEPGAQPGQEPGAQPGQEPGAQPGQEKGAQPGQEPGAQPGQEPGAQPGQEPGAQPARQGDHCPLGPGRCCRLHTVRASLEDLGWADWVLSPREVQVTMCIGACPSQFRAANLHAQIKTSLHRLRPDTVPAPCCVPASYNPMVLIQRTDTGVSLQTYDDLLARDCHCI
modifications: Moiety A conjugated at linker K52
B11: MLC104: fusion polypeptide SEQ ID NO: 391 conjugated with Moiety A at 76K of Linker (conjugate)
chain: B2 chain with K32G, K86Q, P107K
modifications: Moiety A conjugated at linker Lys76
B12: MLC103: fusion polypeptide SEQ ID NO: 390 conjugated with Moiety A at 71K of Linker (conjugate)
chain: B2 chain with K32G, K86Q, Q102K
modifications: Moiety A conjugated at linker Lys71
B13: MLC046: fusion polypeptide SEQ ID NO: 329 conjugated with Moiety A at 60K of linker (conjugate)
chain: B2 chain with K32G, K86Q, P91K
modifications: Moiety A conjugated at linker K60
B14: MLC064: fusion polypeptide SEQ ID NO: 359 conjugated with Moiety A at 51K of Linker (conjugate)
chain: B2 chain with K32G, Q82K, K86Q
modifications: Moiety A conjugated at linker K51
B15: MLC030: fusion polypeptide SEQ ID NO: 277 conjugated with Moiety A at 15K of Linker (conjugate)
chain: HGEGTFTSDVSSYLEEQAAREFIAWLVRGGGGQEPGQEPGQEPGQKPGQEPGQEPGQEPGQEPGAQPGAQPGAQPGAQPGAQPGAQPGAQPGAQPGAQPGAQPGAQPGAQPARQGDHCPLGPGRCCRLHTVRASLEDLGWADWVLSPREVQVTMCIGACPSQFRAANLHAQIKTSLHRLRPDTVPAPCCVPASYNPMVLIQRTDTGVSLQTYDDLLARDCHCI
modifications: Moiety A conjugated at linker K15

test: Body weight and food intake in C57BL/6 mice, fusion protein conjugates, 30 nmol/kg daily 10 days; assay type: in vivo
Protocol: 10 week old male C57BL/6 mice were injected everyday subcutaneously with 15 nmol/kg of the fusion protein conjugates (i.e., MLC002, MLC 004, MLC 005, MLC 006, MLC 007, MLC 008, and MLC 009) for 14 days. Food intake and body weight were measured daily and five animals were used for each treatment group. Body weight (BW) was monitored for each individual animal, but food intake for each group animals was measured together. Day 1 and Day 14 are first day and last day of molecule dosage. % BW loss=100*(BW on Day n-BW on Day 1)/(BW on Day 1). Cumulative food intake on Day n represents sum of food intake from Day 1 to Day n. Data are indicated as mean values and standard error (SEM) or pooled values. Statistical analysis was performed by One-way ANOVA. Body weight reduction on Day 11 is calculated by −1*(% BW loss−% BW loss of vehicle group); Cumulative food intake reduction is calculated by −100*(cumulative food intake-cumulative food intake of vehicle)/cumulative food intake of vehicle.
Data were calculated in the same way as described above. Day 1 and Day 10 are first day and last day of the administration.
MLC014 was used as a negative control. MLC014 has an amino acid sequence of SEQ ID NO: 261, which contains a linker fused to the N terminal of GDF15, with a CRM conjugated to the lysine residue in the linker. Tirzepatide was also used as a control.

Molecule	Body weight reduction at 30 nmol/kg (% reduction compared to vehicle)(Day11) [%]	Cumulative food intake reduction at 30 nmol/kg (% reduction compared to vehicle)(Day11) [%]
Tirzepatide [reference compound]	10.5	23.0
B1	30.6	37.2
B2	20.6	27.8
B3	20.7	36.2
B4	21.5	39.0
B5	17.2	33.2
B6	21.6	50.5
B7	17.4	30.5
B8	9.5	27.3
B9	19.1	40.7
B10	23.5	48.1
B11	22.7	29.4
B12	23.3	36.2
B13	24.6	41.4
B14	24.0	43.6
B15	22.0	29.1
